Substitutions are numbered along the chain they refer to. Names may count otherwise. Each block holds one binder with its values, some of them ahead of it.
Key:
ANXA1 [1] = target: T1, ANXA1; assay: ELISA on coated ANXA1-His
T1 construct: coated protein in the ELISA; also called ANXA1-His (R&D Systems)
T1 chain: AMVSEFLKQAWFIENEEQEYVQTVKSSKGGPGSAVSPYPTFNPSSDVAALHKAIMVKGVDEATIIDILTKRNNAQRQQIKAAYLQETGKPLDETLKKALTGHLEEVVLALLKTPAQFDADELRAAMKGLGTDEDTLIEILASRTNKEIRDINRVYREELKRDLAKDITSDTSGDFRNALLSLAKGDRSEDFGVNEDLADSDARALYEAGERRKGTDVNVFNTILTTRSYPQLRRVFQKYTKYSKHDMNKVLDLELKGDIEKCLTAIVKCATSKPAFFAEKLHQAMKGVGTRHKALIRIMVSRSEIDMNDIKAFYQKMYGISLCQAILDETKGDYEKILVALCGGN
Method: (§1) Recombinant purified ECDs (50-150 ng) of each putative target protein were coated, incubated with 150 ng of the indicated primary antibody, and binding was detected using a peroxidase-conjugated anti-human Fab secondary antibody. Heatmap represents averages of technical triplicates. (8B) Target validation via siRNA knockdown. H929 cells were transfected with siRNA pools targeting the putative antibody targets ICAM1, CADM1, and PTPRG. Cells were then subjected to cognate IgG binding analysis via flow cytometry. (NT, non-targeting siRNA).
(§2) ELISA ELISA was conducted as described previously. Briefly, 50-150 ng of antigen was coated overnight in half-area 96-well plates at 4° C., blocked with 3% BSA at 37° C. for 1 h, and 150 ng of chimeric rabbit/human IgG1 was added, incubating for 2 h at 37° C. […] After incubating at 37° C. for 15 min-1 h (depending on intensity of controls), data were acquired using a SpectraMax M5 plate reader (Molecular Devices).

APP = target: T2, APP; assay: ELISA on coated APP-His, 150 ng IgG1; None 0.092
T2 construct: His-tagged; coated protein in the ELISA; also called APP-His (Acro Biosystems)
Method: as §1, §2

ICAM1-Fc (R&D Systems) = target: T3, ICAM1-Fc (R&D Systems) (human, UniProt P05362 28-480); assay: ELISA on coated ICAM1-Fc, 150 ng IgG1; None 0.060
T3 construct: Bought; also called ICAM-1/CD54; not shown: Fc of the bought fusion protein
T3 sequence (P05362 28-480): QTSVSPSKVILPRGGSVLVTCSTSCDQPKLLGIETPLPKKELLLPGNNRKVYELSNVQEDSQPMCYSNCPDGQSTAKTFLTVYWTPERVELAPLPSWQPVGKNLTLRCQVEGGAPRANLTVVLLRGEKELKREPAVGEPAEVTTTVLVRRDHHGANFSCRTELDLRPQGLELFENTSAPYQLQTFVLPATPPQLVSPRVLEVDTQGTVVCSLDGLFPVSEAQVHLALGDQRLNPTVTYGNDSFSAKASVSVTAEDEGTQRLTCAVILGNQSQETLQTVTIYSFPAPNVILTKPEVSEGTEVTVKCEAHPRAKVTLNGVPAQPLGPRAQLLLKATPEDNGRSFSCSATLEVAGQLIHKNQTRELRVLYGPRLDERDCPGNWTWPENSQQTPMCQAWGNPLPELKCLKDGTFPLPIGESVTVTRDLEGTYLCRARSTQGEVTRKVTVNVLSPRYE
Method: as §1, §2

[2] = target: T4, PTPRG-Fc (ECD of human PTPRG, aa 20-736, fused to human Fc gamma 1) (human, UniProt P23470 20-736); assay: ELISA on coated PTPRG-Fc, 150 ng IgG1; None 0.117
T4 construct: Made in-house in Expi293 cells; Used in ELISA and SPR; also called recombinant PTPRG-Fc; PTRPG; not shown: human IgG1 Fc (Fc gamma 1) after the hinge
T4 sequence: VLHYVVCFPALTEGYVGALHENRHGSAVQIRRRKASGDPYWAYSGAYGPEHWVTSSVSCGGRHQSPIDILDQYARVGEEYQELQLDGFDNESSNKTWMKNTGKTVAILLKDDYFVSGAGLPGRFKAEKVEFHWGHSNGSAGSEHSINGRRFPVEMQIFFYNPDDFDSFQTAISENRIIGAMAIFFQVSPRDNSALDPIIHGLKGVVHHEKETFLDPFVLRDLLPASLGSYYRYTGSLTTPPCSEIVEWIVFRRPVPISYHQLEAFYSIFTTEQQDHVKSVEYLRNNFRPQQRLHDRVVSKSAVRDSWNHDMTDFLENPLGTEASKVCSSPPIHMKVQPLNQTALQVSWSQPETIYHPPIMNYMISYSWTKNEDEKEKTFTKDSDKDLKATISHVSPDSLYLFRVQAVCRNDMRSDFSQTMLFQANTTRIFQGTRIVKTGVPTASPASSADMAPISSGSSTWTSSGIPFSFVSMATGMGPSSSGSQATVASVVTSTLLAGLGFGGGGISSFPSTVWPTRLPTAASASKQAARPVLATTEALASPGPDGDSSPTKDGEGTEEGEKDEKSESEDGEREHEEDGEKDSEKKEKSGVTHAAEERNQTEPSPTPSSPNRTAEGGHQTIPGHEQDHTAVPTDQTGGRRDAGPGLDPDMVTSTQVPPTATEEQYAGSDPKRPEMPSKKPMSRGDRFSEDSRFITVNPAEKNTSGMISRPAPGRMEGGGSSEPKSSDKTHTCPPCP
Method: as §1, §2

ANXA1 [3] = target: T1, ANXA1; assay: ELISA on coated ANXA1-His, 150 ng IgG1; None 0.098
Method: as §1, §2

SLAMF7 = target: T5, SLAMF7; assay: ELISA on coated SLAMF7-StrepTag, 150 ng IgG1; None 0.047
T5 construct: coated protein in the ELISA; also called SLAMF7-StrepTag
T5 chain: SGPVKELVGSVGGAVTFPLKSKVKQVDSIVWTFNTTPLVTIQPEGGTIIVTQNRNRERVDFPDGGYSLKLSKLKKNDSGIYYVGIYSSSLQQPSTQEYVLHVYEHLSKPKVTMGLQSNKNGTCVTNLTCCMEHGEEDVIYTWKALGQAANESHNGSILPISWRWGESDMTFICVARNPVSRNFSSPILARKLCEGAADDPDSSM
Method: as §1, §2

ELISA Absorbance (405 nm-570 nm) (APP): 0.082 | ELISA Absorbance (405 nm-570 nm) (ICAM1-Fc (R&D Systems)): 0.077 | ELISA Absorbance (405 nm-570 nm) [2]: 0.106 | ELISA Absorbance (405 nm-570 nm) (ANXA1 [3]): 0.09 | ELISA Absorbance (405 nm-570 nm) (SLAMF7): 0.052
B1: TH9-0022 (antibody, human IgG1, kappa, L234A L235A, V domains shown)
VH: QSLEESGGRLVTPGTPLTLTCTVSGFSLSSYAMNWVRQAPGKGLEWIGIINSYGSTYYASWAKGRFTISKTSTTVDLKITSPTTEDTATYFCARVTYDSYGYGYAPYGMDLWGPGTLVTVSS
VL: LVMTQTPSSTSNAVGGTVTIKCQASQSIGNVLAWYQQKPGQPPKLLIYAASTLASGVPSRVGGSRSGTEYTLTISGVQREDAATYYCLGSDSDSDIAFGGGTELEILR
notes: also called TH9-022; negative control
binding result (ANXA1 [1]): no binding (tested: 150 ng IgG1 per well)

ELISA Absorbance (405 nm-570 nm) (APP): 0.087 | ELISA Absorbance (405 nm-570 nm) (ICAM1-Fc (R&D Systems)): 0.082 | ELISA Absorbance (405 nm-570 nm) [2]: 0.341 | ELISA Absorbance (405 nm-570 nm) (ANXA1 [3]): 0.103 | ELISA Absorbance (405 nm-570 nm) (SLAMF7): 0.054
B2: HW-42 chimeric rabbit-human IgG1 LA/LA/PG (antibody, V domains shown)
VH: QSVKESEGGLFKPADTLTLTCTVSGFSLSSNEISWVRQAPGEGLEYIGIIDTGGRAYYAVWARSRSTITRNTNLNTVTLKMTSLTAADTATYFCARGGVDTEWYAFSSWGPGTLVTVPS
VL: SFVLTQPASVQVNLGQTVSLTCTADTLSRRYASWYQQKPGQAPVLLIFRDTSRPSGVPDRFSGSSSGDTATLTISGAQAGDEADYYCATSDGSGSNYQYVFGGGTQLTVTG
notes: Fc-silenced (L234A/L235A/P329G) IgG1, lambda; Alexa Fluor 647-labeled in single-step flow cytometry; Cluster C-1
binding result (ANXA1 [1]): no binding (tested: 150 ng IgG1 per well)

ELISA Absorbance (405 nm-570 nm) (APP): 0.066 | ELISA Absorbance (405 nm-570 nm) (ICAM1-Fc (R&D Systems)): 0.054 | ELISA Absorbance (405 nm-570 nm) [2]: 0.784 | ELISA Absorbance (405 nm-570 nm) (ANXA1 [3]): 0.065 | ELISA Absorbance (405 nm-570 nm) (SLAMF7): 0.054
B3: HW-25 chimeric rabbit-human IgG1 LA/LA/PG (antibody, V domains shown)
VH: QSLEESGGRLVTPGTPLTLTCTVSGFSLSSYAMGWVRQAPGKGLEWIGIIDSRGSTYYATWAKGRFTISKTSTTVDLKITSPTTEDTATYFCAREDSYYYDSFNLWGPGTLVTVSS
VL: B2 VL with F48Y, D68N, N96S, Y99C
notes: as for B2
binding result (ANXA1 [1]): no binding (tested: 150 ng IgG1 per well)

ELISA Absorbance (405 nm-570 nm) (APP): 0.233
B4: HW-45 chimeric rabbit-human IgG1 LA/LA/PG (antibody, V domains shown)
VH: QKQLVESGGRLVTPGTPLTLTCTVSGFSLSSYAMGWFRQAPGKGLEWIGIINSYGSTYYASWAKGRFTISKTSTTVDLKITSPTTEDTATYFCGRRIGSARFDPWGPGTLVTVSS
VL: B2 VL with R30S, F48Y, S52R, D68N, N96S, Q98R, Y99L
notes: Fc-silenced (L234A/L235A/P329G) IgG1, lambda; Alexa Fluor 647-labeled in single-step flow cytometry; Prototype of cluster C-45

ELISA Absorbance (405 nm-570 nm) (APP): 0.144 | ELISA Absorbance (405 nm-570 nm) (ICAM1-Fc (R&D Systems)): 0.085 | ELISA Absorbance (405 nm-570 nm) [2]: 0.121 | ELISA Absorbance (405 nm-570 nm) (ANXA1 [3]): 0.153
B5: HW-28 chimeric rabbit-human IgG1 LA/LA/PG (antibody, V domains shown)
VH: QKQLVESGGRLVTPGTPLTLTCTASGFSLSSNAMSWVRQAPGEGLQWIGTISSGGSTYYASWAKGRFTISKTSTTVTLKMTSLTTEDTATYFCARGADLHRLWGPGTLVTVSS
VL: B2 VL with A24G, D25K, T26P, R30S, Y31F, L46V, F48Y, D68N, N96S
notes: Fc-silenced (L234A/L235A/P329G) IgG1, lambda; Alexa Fluor 647-labeled in single-step flow cytometry; Cluster C-45

ELISA Absorbance (405 nm-570 nm) (APP): 0.089 | ELISA Absorbance (405 nm-570 nm) (ICAM1-Fc (R&D Systems)): 0.064 | ELISA Absorbance (405 nm-570 nm) [2]: 0.29 | ELISA Absorbance (405 nm-570 nm) (ANXA1 [3]): 0.102 | ELISA Absorbance (405 nm-570 nm) (SLAMF7): 0.047
B6: HW-70 chimeric rabbit-human IgG1 LA/LA/PG (antibody, V domains shown)
VH: QSLEESGGRLVTPGTPLTLTCTVSGFSLSSNAMSWVRQAPGKGLEWIGTIDGYGYTYYASWAKGRFTVSKTSTTVDLKITSPTTEDTATYFCAREIYLGSNFWGPGTLVTISS
VL: B2 VL with F48Y, D68N, S90A, N96S, Y99F
notes: as for B2
binding result (ANXA1 [1]): no binding (tested: 150 ng IgG1 per well)

ELISA Absorbance (405 nm-570 nm) (APP): 0.225 | ELISA Absorbance (405 nm-570 nm) (ICAM1-Fc (R&D Systems)): 0.055 | ELISA Absorbance (405 nm-570 nm) (ANXA1 [3]): 0.111
B7: HW-16 chimeric rabbit-human IgG1 LA/LA/PG (antibody, V domains shown)
VH: QSLEESGGRLVTPGTPLTLTCTASGFSLSSYAMSWVRQAPGKGLEWIGTMPTGGGTYYASWAKGRFTISKTSTTVDLQITSPTTEDTATYFCAKHWNIWGPGTLVTISS
VL: DIVLTQTPSSTSTAVGDTVTINCRASQSIGRNLAWFQQKPGQPPKLLIYRASNLASGVPSRFKGSGSRTQFTLTISGVQREDAATYYCLGSYSSSDTAFGGGTELEILR
notes: Fc-silenced (L234A/L235A/P329G) IgG1, kappa; Alexa Fluor 647-labeled in single-step flow cytometry; Cluster C-45
binding result (ANXA1 [1]): no binding (tested: 150 ng IgG1 per well)

From patent publication US20260049134A1 (UNIVERSITY OF FLORIDA RESEARCH FOUNDATION, published 2026)
